The values below come from article PMC1847943 (Molecular Systems Biology, 2007).

B1: KaiA (natural protein, Synechococcus elongatus PCC 7942, UniProt Q79PF6 1-284, looked up)
chain: MLSQIAICIWVESTAILQDCQRALSADRYQLQVCESGEMLLEYAQTHRDQIDCLILVAANPSFRAVVQQLCFEGVVVPAIVVGDRDSEDPDEPAKEQLYHSAELHLGIHQLEQLPYQVDAALAEFLRLAPVETMADHIMLMGANHDPELSSQQRDLAQRLQERLGYLGVYYKRDPDRFLRNLPAYESQKLHQAMQTSYREIVLSYFSPNSNLNQSIDNFVNMAFFADVPVTKVVEIHMELMDEFAKKLRVEGRSEDILLDYRLTLIDVIAHLCEMYRRSIPRET
B2: KaiC (natural protein, Synechococcus elongatus PCC 7942, UniProt Q79PF4 1-519, looked up)
chain: MTSAEMTSPNNNSEHQAIAKMRTMIEGFDDISHGGLPIGRSTLVSGTSGTGKTLFSIQFLYNGIIEFDEPGVFVTFEETPQDIIKNARSFGWDLAKLVDEGKLFILDASPDPEGQEVVGGFDLSALIERINYAIQKYRARRVSIDSVTSVFQQYDASSVVRRELFRLVARLKQIGATTVMTTERIEEYGPIARYGVEEFVSDNVVILRNVLEGERRRRTLEILKLRGTSHMKGEYPFTITDHGINIFPLGAMRLTQRSSNVRVSSGVVRLDEMCGGGFFKDSIILATGATGTGKTLLVSRFVENACANKERAILFAYEESRAQLLRNAYSWGMDFEEMERQNLLKIVCAYPESAGLEDHLQIIKSEINDFKPARIAIDSLSALARGVSNNAFRQFVIGVTGYAKQEEITGLFTNTSDQFMGAHSITDSHISTITDTIILLQYVEIRGEMSRAINVFKMRGSWHDKAIREFMISDKGPDIKDSFRNFERIISGSPTRITVDEKSELSRIVRGVQEKGPES
modifications: phosphorylation level changes over the incubation with KaiA, KaiB and ATP (autophosphorylation)
B3: KaiB (natural protein, Synechococcus elongatus PCC 7942, UniProt Q79PF5 1-102, looked up)
chain: MSPRKTYILKLYVAGNTPNSVRALKTLKNILEVEFQGVYALKVIDVLKNPQLAEEDKILATPTLAKVLPLPVRRIIGDLSDREKVLIGLDLLYGELQDSDDF

The data set concerns the molecule itself. Nature of the data set: native gel or EMSA.
With B1, the stoichiometry N (in general, the number of molecules, sites or subunits per partner or assembly) was 2. As to B2, the “stoichiometry N” value worked out at 6.

Take B3: the “stoichiometry N” value turned out to be 4.
